{"source": "patent US6413935", "molecular_target": "HLA-DQ3.1 (DQA1*0301/DQB1*0310), purified from PF cells (human) (UniProt P01909)", "experiment": "125I-peptide inhibition, purified class II", "data": [{"substance": "lambda rep 12-26 (peptide)", "values": [{"measurement": "IC50", "value": "> 10", "unit": "µM"}]}]}
